Reference: patent WO2013011062A2 (dated 2013)

Key:
[1] = target: T1, Human OSCAR (osteoclast-associated receptor), full length, on cells (human); assay: flow cytometry on human monocytes (CD14+ PBMC), Alexa Fluor 647-labelled mAb at 0.5 ug/ml
T1 construct: also called hOSCAR; HEK-OSCAR cells
T1 chain: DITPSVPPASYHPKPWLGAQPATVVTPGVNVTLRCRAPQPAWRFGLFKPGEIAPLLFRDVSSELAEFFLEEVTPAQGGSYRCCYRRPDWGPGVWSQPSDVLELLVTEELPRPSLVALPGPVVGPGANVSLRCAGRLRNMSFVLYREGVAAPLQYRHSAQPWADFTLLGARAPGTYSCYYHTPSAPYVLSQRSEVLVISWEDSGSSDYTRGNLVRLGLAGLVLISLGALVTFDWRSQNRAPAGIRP

Human collagen I = target: T2, Human collagen I (human, UniProt P02452 162-1218; P08123 80-1119); assay: SPR
T2 construct: Bought (Sigma C5483); also called ColI; collagen 1
T2 sequence (P02452 162-1218, chain 1 of 2): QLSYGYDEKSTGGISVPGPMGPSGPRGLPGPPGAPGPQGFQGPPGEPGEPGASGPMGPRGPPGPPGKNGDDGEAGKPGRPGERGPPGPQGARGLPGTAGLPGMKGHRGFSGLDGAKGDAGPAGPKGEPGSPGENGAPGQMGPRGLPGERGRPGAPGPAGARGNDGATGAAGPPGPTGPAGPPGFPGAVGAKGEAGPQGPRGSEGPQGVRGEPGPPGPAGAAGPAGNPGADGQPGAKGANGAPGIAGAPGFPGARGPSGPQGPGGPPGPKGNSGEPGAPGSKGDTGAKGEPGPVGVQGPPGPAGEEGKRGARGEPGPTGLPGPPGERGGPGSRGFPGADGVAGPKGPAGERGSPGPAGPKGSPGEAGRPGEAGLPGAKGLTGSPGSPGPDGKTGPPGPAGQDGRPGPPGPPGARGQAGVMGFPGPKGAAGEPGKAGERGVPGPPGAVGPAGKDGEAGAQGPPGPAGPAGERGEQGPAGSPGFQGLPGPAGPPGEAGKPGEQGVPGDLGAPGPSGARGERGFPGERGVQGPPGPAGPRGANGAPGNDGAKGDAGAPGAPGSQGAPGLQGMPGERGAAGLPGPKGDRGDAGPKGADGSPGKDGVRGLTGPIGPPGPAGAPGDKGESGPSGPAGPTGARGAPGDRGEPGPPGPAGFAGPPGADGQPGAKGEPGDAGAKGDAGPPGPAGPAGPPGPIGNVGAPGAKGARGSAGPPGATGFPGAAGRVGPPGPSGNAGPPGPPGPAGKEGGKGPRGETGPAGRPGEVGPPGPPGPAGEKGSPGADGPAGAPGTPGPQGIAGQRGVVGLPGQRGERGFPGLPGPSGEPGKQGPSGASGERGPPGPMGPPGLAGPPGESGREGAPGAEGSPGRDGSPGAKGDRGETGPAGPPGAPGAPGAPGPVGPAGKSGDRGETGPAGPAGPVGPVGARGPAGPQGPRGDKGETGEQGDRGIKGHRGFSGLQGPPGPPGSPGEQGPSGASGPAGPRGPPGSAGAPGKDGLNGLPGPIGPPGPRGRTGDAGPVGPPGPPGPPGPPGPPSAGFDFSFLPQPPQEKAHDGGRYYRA
T2 sequence (P08123 80-1119, chain 2 of 2): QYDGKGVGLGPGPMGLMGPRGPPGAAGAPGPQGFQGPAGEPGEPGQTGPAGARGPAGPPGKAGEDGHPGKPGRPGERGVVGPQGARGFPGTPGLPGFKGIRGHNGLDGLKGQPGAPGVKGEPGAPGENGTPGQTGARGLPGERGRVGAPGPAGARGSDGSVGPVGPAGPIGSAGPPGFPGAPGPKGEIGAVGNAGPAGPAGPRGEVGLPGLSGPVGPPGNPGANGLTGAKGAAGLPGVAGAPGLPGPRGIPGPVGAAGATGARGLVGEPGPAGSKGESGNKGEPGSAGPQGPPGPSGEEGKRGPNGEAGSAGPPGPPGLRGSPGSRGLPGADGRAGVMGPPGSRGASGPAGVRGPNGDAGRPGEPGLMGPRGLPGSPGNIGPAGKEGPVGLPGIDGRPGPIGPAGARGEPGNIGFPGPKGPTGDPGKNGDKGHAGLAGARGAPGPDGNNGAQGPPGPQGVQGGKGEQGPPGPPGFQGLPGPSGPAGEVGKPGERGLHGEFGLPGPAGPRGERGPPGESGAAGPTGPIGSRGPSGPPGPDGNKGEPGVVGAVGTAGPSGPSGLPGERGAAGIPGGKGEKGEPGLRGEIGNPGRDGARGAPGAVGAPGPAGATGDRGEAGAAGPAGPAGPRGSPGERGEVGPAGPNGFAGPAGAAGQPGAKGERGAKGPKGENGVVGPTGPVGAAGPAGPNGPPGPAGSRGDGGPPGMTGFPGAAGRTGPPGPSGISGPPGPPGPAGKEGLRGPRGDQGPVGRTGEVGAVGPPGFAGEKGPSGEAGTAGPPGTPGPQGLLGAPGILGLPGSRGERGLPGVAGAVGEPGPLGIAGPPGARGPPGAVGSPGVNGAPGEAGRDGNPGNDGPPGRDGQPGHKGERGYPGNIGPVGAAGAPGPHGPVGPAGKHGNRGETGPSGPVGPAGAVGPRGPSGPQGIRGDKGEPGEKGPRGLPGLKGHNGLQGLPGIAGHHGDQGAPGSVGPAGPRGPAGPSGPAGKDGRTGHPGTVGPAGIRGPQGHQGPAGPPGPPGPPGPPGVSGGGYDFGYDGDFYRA

B1: anti-OSCAR mAb 13F5A5 (antibody, V domains shown)
VH: EVQLVQSGAEVKKPGESLKISCKGSGYSFTSYWIVWVRQMPGKGLEWMGSIYPGDSDARYSPSFQGQVTISADKSISTAYLQWSSLKASDTAMYYCARQKITMVRGVIITPLDGMDVWGQGTTVTVSS
VL: not shown
notes: Fully human mAb (HuMab mice)
binding result [1]: binds

B2: anti-OSCAR mAb 16F56A2 (antibody, V domains shown)
VH: QVQLVQSGAEVKKPGSSVKVSCKASGGTFSNYAISWVRQAPGQGLEWMGRIIPILGIAHNAQKFQDRVTITADKSTSTAYMELSSLRSEDTAVYYCASPSSGKGLPYWFFDLWGRGTLVTVSS
VL: DIQMTQSPSFLSASVGDRVTITCRASQSISSYLNWYQQKPGKAPKLLIYAASSLQSGVPSRFSGSGSGTDFTLTISSLQPEDFATYYCQCGYSTPLTFGGGTKVEIKR
notes: Human mAb
binding result [1]: binds

B3: recombinant extracellular domain of human OSCAR (OSCAR-ECD) (receptor)
chain: DITPSVPPASYHPKPWLGAQPATVVTPGVNVTLRCRAPQPAWRFGLFKPGEIAPLLFRDVSSELAEFFLEEVTPAQGGSYRCCYRRPDWGPGVWSQPSDVLELLVTEELPRPSLVALPGPVVGPGANVSLRCAGRLRNMSFVLYREGVAAPLQYRHSAQPWADFTLLGARAPGTYSCYYHTPSAPYVLSQRSEVLVISWEDSGSSDYTR
notes: The printed entry starts with the putative signal peptide; also called Human OSCAR-ECD; OSACAR-ECD
Kd (Human collagen I): 255 nM
